Data from publication PMC11926245, “Structural recognition and stabilization of tyrosine hydroxylase by the J-domain protein DNAJC12” (Nature Communications, 2025).

Target: Tyrosine hydroxylase, wild-type (hTH1) (human) (UniProt P07101)
Test: BLI; biotinylated TH or TH variant immobilised on streptavidin sensors; DNAJC12 or variant 0.01-4 μM in solution; PBS, 0.02% Tween-20, 0.5 mg/mL BSA, 25 °C; responses fitted to a one-site hyperbola

Chain of DNAJC12(1-107) (Q9UKB3 1-107): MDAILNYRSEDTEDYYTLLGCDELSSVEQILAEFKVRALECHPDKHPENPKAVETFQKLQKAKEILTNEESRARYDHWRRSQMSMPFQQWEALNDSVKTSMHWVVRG

## DNAJC12(1-107) (from UniProt Q9UKB3-1 1-107) (domain or fragment)
  Kd: 3.99 µM
